To fix the notation:
B1: Chinese hamster ACE2 ectodomain fused with mFc (Fc fusion)
chain: QSIIEEQAKTFLDKFNQEAEDLSYQSALASWNYNTNITEENAQKMNEAAAKWSAFYEEQSKLAKNYSLQEVQNLIIKRQLQALQQSGSSALSADKNKQLNTILNTMSTIYSTGKVCNPKNPQECLLLEPGLDDIMATSTDYNERLWAWEGWRAEVGKQLRPLYEEYVVLKNEMARANNYKDYGDYWRGDYEAEGADGYNYNGNQLIEDVERTFKEIKPLYEQLHAYVRTKLMDTYPSFISPTGCLPAHLLGDMWGRFWTNLYPLTVPFGQKPNIDVTDAMVNQGWDAERIFKEAEKFFVSVGLPHMTQGFWGNSMLTDPGDDRKVVCHPTAWDLGKGDFRIKMCTKVTMDNFLTAHHEMGHIQYDMAYATQPFLLRNGANEGFHEAVGEIMSLSAATPKHLKSIGLLPSNFHEDNETEINFLLKQALTIVGTLPFTYMLEKWRWMVFKGDIPKEKWMEKWWEMKREIVGVVEPLPHDETYCDPAALFHVSNDYSFIRYYTRTIYQFQFQEALCQAAKHDGPLHKCDISNSTEAGQKLLNMLRLGKSEPWTLALENVVGARNMDVRPLLNYFEPLSVWLKEQNKNSFVGWNTDWSPYADQSIKVRISLKSALGENAYEWNDNEMYLFRATVAYAMRVYFAKNKTQTVLFGVEDIRVSDLKPRVSFNFFVTSPQNVSDIIPRNEVEEAVRFSRGRINDVFGLDDNSLEFLGINPTLAPPYQPPVT
B2: rabbit ACE2 ectodomain fused with mFc (Fc fusion)
chain: QSTIEELAKTFLEKFNQEAEDLSYQSALASWDYNTNITEENVQKMNDAEAKWSAFYEEQSKLAKTYPSQEVQNLTVKRQLQALQQSGSSALSADKSKQLNTILSTMSTIYSTGKVCNQSNPQECFLLEPGLDEIMAKSTDYNERLWAWEGWRSVVGKQLRPLYEEYVVLKNEMARANNYEDYGDYWRADYEAEGADGYDYSRSQLIDDVERTFSEIKPLYEQLHAFVRTKLMDAYPSRISPTGCLPAHLLGDMWGRFWTNLYSLTVPFGQKPNIDVTDTMVNQGWDAERIFKEAEKFFVSVGLPSMTQGFWENSMLTEPGDGRKVVCHPTAWDLGKGDFRIKMCTKVTMDNFLTAHHEMGHIQYDMAYATQPFLLRNGANEGFHEAVGEIMSLSAATPEHLKSIGLLPYDFHEDNETEINFLLKQALTIVGTLPFTYMLEKWRWMVFKGEIPKEQWMQKWWEMKREIVGVVEPMPHDETYCDPAALFHVANDYSFIRYYTRTIYQFQFQEALCQAAQHEGPLHKCDISNSTEAGQKLLNMLRLGRSEPWTLALENVVGAKNMDVRPLLNYFEPLFTWLKEQNRNSFVGWSTEWTPYADQSIKVRISLKTALGDQAYEWNDSEMYLFRSSVAYAMRKYFSEVKNQTILFGEEDVRVSDLKPRISFNFFVTAPNNVNDIIPRNEVEEAISMSRSRINDIFRLDDNSLEFVGIQPTLEPPYESPVP
B3: goat ACE2 ectodomain fused with mFc (Fc fusion)
chain: QSTTEEQAKTFLEKFNHEAEDLSYQSSLASWNYNTNITDENVQKMNEARAKWSAFYEEQSRMARTYSLEEIQNLTLKRQLKALQHSGTSVLSAEKSKRLNTILNKMSTIYSTGKVLDPNTQECLALEPGLDDIMENSRDYNRRLWAWEGWRAEVGKQLRPLYEEYVVLENEMARANNYEDYGDYWRGDYEVTGAGDYDYSRDQLMKDVERTFAEIKPLYEQLHAYVRAKLMNTYPSYISPTGCLPAHLLGDMWGRFWTNLYSLTVPFEHKPSIDVTEKMKNQSWDAERIFKEAEKFFVSIGLPYMTQGFWNNSMLTEPGDGRKVVCHPTAWDLGKGDFRIKMCTKVTMDDFLTAHHEMGHIQYDMAYATQPYLLRNGANEGFHEAVGEIMSLSAATPHYLKALGLLAPDFYEDNETEINFLLKQALTIVGTLPFTYMLEKWRWMVFKGEIPKQQWMEKWWEMKREIVGVVEPLPHDETYCDPACLFHVAEDYSFIRYYTRTIYQFQFHEALCKTAKHEGALFKCDISNSTEAGQRLLQMLRLGKSEPWTLALENIVGIKTMDVKPLLNYFEPLFTWLKEQNRNSFVGWSTEWTPYSDQSIKVRISLKSALGENAYEWNDNEMYLFRSSVAYAMRKYFLEDRNETIPFGEENVWVSDKKPRISFKFFVTSPNNVSDIIPRTEVENAIRLCRDRINDAFQLDDNSLEFLGIQPTLRPPYEPP
B4: horse ACE2 ectodomain fused with mFc (Fc fusion)
chain: QSTTEDLAKTFLEKFNSEAEELSHQSSLASWSYNTNITDENVQKMNEAGARWSAFYEEQCKLAKTYPLEEIQNLTVKRQLQALQQSGSSVLSADKSKRLNEILNTMSTIYSTGKVCNPSNPQECLLLEPGLDAIMENSKDYNQRLWAWEGWRSEVGKQLRPLYEEYVVLKNEMARANNYEDYGDYWRGDYEAEGPSGYDYSRDQLIEDVERTFAEIKPLYEHLHAYVRAKLMDTYPSHINPTGCLPAHLLGDMWGRFWTNLYSLTVPFGQKPNIDVTDAMVDQSWDAKRIFEEAEKFFVSVGLPNMTQGFWENSMLTEPGDGRKVVCHPTAWDLGKGDFRIKMCTKVTMDDFLTAHHEMGHIQYDMAYAVQPYLLRNGANEGFHEAVGEIMSLSAATPNHLKAIGLLPPDFYEDSETEINFLLKQALTIVGTLPFTYMLEKWRWMVFKGEIPKEEWMKKWWEMKREIVGVVEPVPHDETYCDPAALFHVANDYSFIRYYTRTIYQFQFQEALCQTAKHEGPLHKCDISNSTEAGQKLLQMLSLGKSEPWTLALERIVGVKNMDVRPLLNYFEPLFTWLKDQNKNSFVGWSTNWSPYADQSIKVRISLKSALGEKSYEWNDNEMYLFQSSVAYAMRVYFLKAKNQTILFGEEDVWVSDLKPRISFNFFVTSPKNASDIIPRTDVEEAIRMSRSRINDAFRLDDNTLEFLGIQPTLGPPYQPPVT
B5: raccoon dog ACE2 ectodomain fused with mFc (Fc fusion)
chain: QSTEDLVNTFLEKFNYEAEELSYQSSLASWNYNTNITDENLQKMNNAGAKWSAFYEEQSKLAKTYPLEEIQDSTVKRQLRALQHSGSSVLSADKNQRLNTILNSMSTIYSTGKACNPSNPQECLLLEPGLDDIMENSKDYNERLWAWEGWRSEVGKQLRPLYEEYVALKNEMARANNYEDYGDYWRGDYEEEWENGYNYSRNQLIDDVEHTFTQIMPLYQHLHAYVRTKLMDTYPSYISPTGCLPAHLLGDMWGRFWTNLYPLTVPFGQKPNIDVTNAMVNQSWDARKIFKEAEKFFVSVGLPNMTQGFWENSMLTEPSDSWKVVCHPTAWDLGRGDFRIKMCTKVTMDDFLTAHHEMGHIQYDMAYAAQPFLLRNGANEGFHEAVGEIMSLSAATPNHLKNIGLLPPSFFEDSETEINFLLKQALTIVGTLPFTYMLEKWRWMVFKGEIPKDQWMKTWWEMKRNIVGVVEPVPHDETYCDPASLFHVANDYSFIRYYTRTIYQFQFQEALCQIAKHEGPLHKCDISNSSEAGQKLLEMLKLGKSKPWTYALEIVVGAKNMDVRPLLNYFEPLFTWLKEQNRNSFVGWNTDWSPYADQSIKVRISLKSALGEKAYEWNNNEMYLFRSSIAYAMRQYFSEVKNQTIPFVEDNVWVSDLKPRISFNFFVTSPGNVSDIIPRTEVEEAIRMYRSRINDVFRLDDNSLEFLGIQPTLGPPYEPPVT
B6: dog ACE2 ectodomain fused with mFc (Fc fusion)
chain: QSTEDLVKTFLEKFNYEAEELSYQSSLASWNYNINITDENVQKMNNAGAKWSAFYEEQSKLAKTYPLEEIQDSTVKRQLRALQHSGSSVLSADKNQRLNTILNSMSTIYSTGKACNPSNPQECLLLEPGLDDIMENSKDYNERLWAWEGWRSEVGKQLRPLYEEYVALKNEMARANNYEDYGDYWRGDYEEEWENGYNYSRNQLIDDVEHTFTQIMPLYQHLHAYVRTKLMDTYPSYISPTGCLPAHLLGDMWGRFWTNLYPLTVPFGQKPNIDVTNAMVNQSWDARKIFKEAEKFFVSVGLPNMTQEFWENSMLTEPSDSRKVVCHPTAWDLGKGDFRIKMCTKVTMDDFLTAHHEMGHIQYDMAYAAQPFLLRNGANEGFHEAVGEIMSLSAATPNHLKNIGLLPPSFFEDSETEINFLLKQALTIVGTLPFTYMLEKWRWMVFKGEIPKDQWMKTWWEMKRNIVGVVEPVPHDETYCDPASLFHVANDYSFIRYYTRTIYQFQFQEALCQIAKHEGPLHKCDISNSSEAGQKLLEMLKLGKSKPWTYALEIVVGAKNMDVRPLLNYFEPLFTWLKEQNRNSFVGWNTDWSPYADQSIKVRISLKSALGEKAYEWNNNEMYLFRSSIAYAMRQYFSEVKNQTIPFVEDNVWVSDLKPRISFNFFVTSPGNVSDIIPRTEVEEAIRMYRSRINDVFRLDDNSLEFLGIQPTLGPPYEPPVT
B7: fox ACE2 ectodomain fused with mFc (Fc fusion)
chain: QSTEDLVNTFLEKFNYEAEELSYQSSLASWDYNTNISDENVQKMNNAGAKWSAFYEEQSKLAKTYPLEEIQDSTVKRQLRALQHSGSSVLSADKNQRLNTILNSMSTIYSTGKACNPSNPQECLLLEPGLDDIMENSKDYNERLWAWEGWRSEVGKQLRPLYEEYVALKNEMARANNYEDYGDYWRGDYEEEWENGYNYSRNQLIDDVEHTFTQIMPLYQHLHAYVRTKLMDTYPSYISPTGCLPAHLLGDMWGRFWTNLYPLTVPFGQKPNIDVTNAMVNQSWDARKIFKEAEKFFVSVGLPNMTQGFWENSMLTEPSDSRKVVCHPTAWDLGKGDFRIKMCTKVTMDDFLTAHHEMGHIQYDMAYAAQPFLLRNGANEGFHEAVGEIMSLSAATPNHLKNIGLLPPSFFEDSETEINFLLKQALTIVGTLPFTYMLEKWRWMVFKGEIPKDQWMKTWWEMKRNIVGVVEPVPHDETYCDPASLFHVANDYSFIRYYTRTIYQFQFQEALCQIAKHEGPLHKCDISNSSEAGQKLLEMLKLGKSKPWTYALEIVVGAKNMDVRPLLNYFEPLFTWLKEQNRNSFVGWNTDWSPYADQSIKVRISLKSALGEKAYEWNNNEMYLFRSSIAYAMRRYFSEVKKQTIPFVEDNVWVSDLKPRISFNFFVTSPGNVSDIIPRTEVEKAIRMYRGRINDVFRLDDNSLEFLGIQPTLGPPYEPPVT
B8: pig ACE2 ectodomain fused with mFc (Fc fusion)
chain: QSTTEELAKTFLEKFNLEAEDLAYQSSLASWNYNTNITDENIQKMNDARAKWSAFYEEQSRIAKTYPLDEIQTLILKRQLQALQQSGTSGLSADKSKRLNTILNTMSTIYSSGKVLDPNNPQECLVLEPGLDEIMENSKDYSRRLWAWESWRAEVGKQLRPLYEEYVVLENEMARANNYEDYGDYWRGDYEVTGTGDYDYSRNQLMEDVERTFAEIKPLYEHLHAYVRAKLMDAYPSRISPTGCLPAHLLGDMWGRFWTNLYPLTVPFGEKPSIDVTEAMVNQSWDAIRIFEEAEKFFVSIGLPNMTQGFWNNSMLTEPGDGRKVVCHPTAWDLGKGDFRIKMCTKVTMDDFLTAHHEMGHIQYDMAYAIQPYLLRNGANEGFHEAVGEIMSLSAATPHYLKALGLLPPDFYEDSETEINFLLKQALTIVGTLPFTYMLEKWRWMVFKGEIPKEQWMQKWWEMKREIVGVVEPLPHDETYCDPACLFHVAEDYSFIRYYTRTIYQFQFHEALCRTAKHEGPLYKCDISNSTEAGQKLLQMLSLGKSEPWTLALENIVGVKTMDVKPLLSYFEPLLTWLKAQNGNSSVGWNTDWTPYADQSIKVRISLKSALGKEAYEWNDNEMYLFRSSIAYAMRNYFSSAKNETIPFGAEDVWVSDLKPRISFNFFVTSPANMSDIIPRSDVEKAISMSRSRINDAFRLDDNTLEFLGIQPTLGPPDEPP

This test deals with SARS-CoV-2 PT-RBD (SARS-CoV-2 prototype, UniProt P0DTC2). Description: SPR. On the technique in general: Surface plasmon resonance follows binding to a sensor surface in real time, without labels.
Consider B1, for which the Kd is 69.4 nM.

For B2, the Kd was found to be 74.8 nM.

In turn, B3 had a Kd of 451 nM.

With B4, binding was characterised by a dissociation constant (Kd) of 64.4 nM.

The molecule B5 returned a Kd of 424 nM.

In turn, B6 came in with a Kd of 299 nM.

As to B7, binding was put at a Kd of 59.2 nM.

Take B8: the Kd is 175 nM.

One may read the Kd as the equilibrium constant for the complex coming apart. The low end stands for higher affinity, the high end for lower affinity.

The record behind these values is article PMC12363175 (2025).
